Experimental data taken from patent US20250066831.

How the values were obtained:
[1] = test system: V40 elastin-like polypeptide fused to CVLL
[2] = test system: ELP-CVLS (protein substrate of the in vitro farnesylation reaction)

V40 elastin-like polypeptide fused to CVLL, sequence (chain, as listed by the source): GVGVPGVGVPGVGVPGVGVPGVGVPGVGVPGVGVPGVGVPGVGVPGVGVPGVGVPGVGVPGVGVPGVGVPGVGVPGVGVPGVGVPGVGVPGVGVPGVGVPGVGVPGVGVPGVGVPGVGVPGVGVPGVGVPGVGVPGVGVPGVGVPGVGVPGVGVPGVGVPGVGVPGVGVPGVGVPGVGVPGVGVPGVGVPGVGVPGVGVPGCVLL

geranylgeranyl transferase type I (GGTase-I) from Rattus norvegicus, heterodimer of alpha and beta subunits
farnesylation on co-expression in E. coli (HPLC, MALDI-TOF MS, NMR of purified V40-Fr) [1]: only one farnesyl group is added to the protein at the cysteine residue located in the C-terminal CaaX motif

farnesyltransferase (FTase) from Rattus norvegicus, heterodimer of alpha and beta subunits
in vitro farnesylation (3 µM ELP-CVLS, 0.2 µM FTase, 10 µM FPP, RP-HPLC) [2]: In vitro farnesylation of ELPs with the soluble transferase (produced as a translationally coupled heterodimer) indicates that the recombinantly expressed enzyme is active
